We go through 4 molecules from paper doi:10.1101/2025.03.24.644971.

Common to all, as to assay: EMSA
Data set [1] relates to Calb_Rsc1 213-599 WT (AT-hook-BD2-BAH) (Candida albicans). The conditions noted are these: 50 mM Tris-HCl pH 7.5, 100 mM NaCl, 2.5% glycerol, 0.1 mM EDTA, 1 mM DTT.
For data set [2], the system named is Calb_Rsc1 213-599 BAH mutant (Candida albicans). The settings on record: 50 mM Tris-HCl pH 7.5, 100 mM NaCl, 2.5% glycerol, 0.1 mM EDTA, 1 mM DTT.
Data set [3] has as its target T1, Scer_Rsc1 221-596 basic-surface mutant (Saccharomyces cerevisiae, UniProt P53236 221-596, K246E;R249E;R250E).
T1 sequence: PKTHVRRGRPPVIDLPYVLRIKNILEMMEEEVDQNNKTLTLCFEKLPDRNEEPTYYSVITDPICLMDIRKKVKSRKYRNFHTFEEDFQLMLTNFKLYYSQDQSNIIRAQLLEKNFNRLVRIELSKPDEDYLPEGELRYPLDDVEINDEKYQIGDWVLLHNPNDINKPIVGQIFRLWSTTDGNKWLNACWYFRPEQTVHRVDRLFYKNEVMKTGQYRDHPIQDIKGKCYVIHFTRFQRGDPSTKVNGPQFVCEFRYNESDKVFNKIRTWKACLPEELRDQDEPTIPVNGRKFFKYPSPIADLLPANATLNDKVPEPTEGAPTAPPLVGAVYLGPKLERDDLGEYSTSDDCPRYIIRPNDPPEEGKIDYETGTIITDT

For a further data set, the target named is T2, Scer_Rsc1 221-596 WT (Saccharomyces cerevisiae, UniProt P53236 221-596).
T2 sequence: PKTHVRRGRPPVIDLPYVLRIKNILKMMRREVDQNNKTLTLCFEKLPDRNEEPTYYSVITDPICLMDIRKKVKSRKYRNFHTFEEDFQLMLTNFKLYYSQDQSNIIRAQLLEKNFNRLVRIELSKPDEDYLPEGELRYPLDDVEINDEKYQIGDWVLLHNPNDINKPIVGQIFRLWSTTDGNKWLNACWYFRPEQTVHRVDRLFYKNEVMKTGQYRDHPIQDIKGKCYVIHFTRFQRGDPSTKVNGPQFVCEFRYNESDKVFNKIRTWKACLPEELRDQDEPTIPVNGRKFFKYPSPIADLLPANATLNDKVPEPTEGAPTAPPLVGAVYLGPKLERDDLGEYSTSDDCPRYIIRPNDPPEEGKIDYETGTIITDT

Another data set concerns the target Scer_Rsc2 261-636 WT (Saccharomyces cerevisiae, UniProt Q06488 261-636).
In data set [4] the target is Scer_Rsc2 261-636 basic-surface mutant (Saccharomyces cerevisiae, UniProt Q06488 261-636, K286E;K289E;K290E).
Sequence of Scer_Rsc2 261-636 basic-surface mutant (Q06488 261-636 K286E/K289E/K290E): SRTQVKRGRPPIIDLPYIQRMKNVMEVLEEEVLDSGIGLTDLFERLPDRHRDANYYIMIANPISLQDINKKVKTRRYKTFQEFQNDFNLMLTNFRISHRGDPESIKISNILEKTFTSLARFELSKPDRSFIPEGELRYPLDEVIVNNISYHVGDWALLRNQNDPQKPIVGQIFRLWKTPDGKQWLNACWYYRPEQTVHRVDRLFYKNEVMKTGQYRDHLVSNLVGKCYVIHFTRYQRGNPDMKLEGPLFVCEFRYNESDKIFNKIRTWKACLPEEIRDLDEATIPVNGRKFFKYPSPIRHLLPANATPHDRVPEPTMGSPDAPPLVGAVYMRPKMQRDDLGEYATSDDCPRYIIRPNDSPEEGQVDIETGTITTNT

Sequence of Scer_Rsc2 261-636 WT (Q06488 261-636): as the sequence (Q06488 261-636 K286E/K289E/K290E) above, with E26K, E29K, E30K counted along it

Turning to “ATCAGGTCGCTGTTCAATACATGCACAGGATGTATATATCTGACACGTGCCTGGAGACTAGGGAGTAATCCCCTTGGCGGTTAAAACGCGGGGGACAGCGCGTACGTGCGTTTAAGCGGTGCTAGAGCTGTCTACGACCAATTGAGCGGCCTCGGCACCGGGATTCTCCAGGGCGGCCGCGTATAGGGTCCATCGAT (double strand) [197bp 601 DNA]”, the Kd in data set [1] turned out to be 1.9 µM; in data set [2] it was 11.3 µM.

As to “ATCGATGTATATATCTGACACGTGCCTGGAGACTAGGGAGTAATCCCCTTGGCGGTTAAAACGCGGGGGACAGCGCGTACGTGCGTTTAAGCGGTGCTAGAGCTGTCTACGACCAATTGAGCGGCCTCGGCACCGGGATTCTGAT (double strand) [145bp 601 DNA]”, the results for the dissociation constant Kd in data set [1] and in data set [2] were 1.9 µM and more than 15 µM, respectively.

Consider “GCATCAGTCTTATAGGAAGAAAAACAAAAAGTCCATCGATCTAG (double strand) [A-rich (polyA) probe]”, for which, in data set [1], the Kd is 7.4 µM.

B1: A-rich (polyA) probe (dsDNA)
DNA 1: GCATCAGTCTTATAGGAAGAAAAACAAAAAGTCCATCGATCTAG
DNA 2: CTAGATCGATGGACTTTTTGTTTTTCTTCCTATAAGACTGATGC
As to B1, the binding result in data set [3] and in data set [4] was “no binding” each time. Also, the results for the Kd with Scer_Rsc1 221-596 WT and with Scer_Rsc2 261-636 WT were 3.7 µM and 2.9 µM, respectively.
